One experiment concerns the target T1, lYibK (linear PaYibK_lo) (Pseudomonas aeruginosa, UniProt Q9HU57).
T1 construct: gene trmL; recombinant in E. coli ER2566 from pBHRSF260, N-terminal His-SUMO fusion cut by Ulp1; homodimer
T1 sequence (Q9HU57 1-153): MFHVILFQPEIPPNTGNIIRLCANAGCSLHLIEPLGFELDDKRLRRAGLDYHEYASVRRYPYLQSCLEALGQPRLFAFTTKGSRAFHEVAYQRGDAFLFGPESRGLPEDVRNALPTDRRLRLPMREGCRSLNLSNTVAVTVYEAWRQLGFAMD
Kind of experiment: isothermal titration calorimetry. Type of experiment: binding. On the technique in general: In ITC the heat of successive injections is recorded.

Experiment [1] concerns the target T2, cYibK (cYibK_lo, backbone-cyclized PaYibK) (Pseudomonas aeruginosa, UniProt Q9HU57).
T2 construct: gene trmL; recombinant in E. coli ER2566 from pITRSF3D (SUMO fusion cut, LPETG-H6), N and C termini joined by S. aureus sortase A through a nine-residue linker, His-tag removed by ligation; backbone-cyclized, homodimer
Nature of the experiment: isothermal titration calorimetry. Type of experiment: binding.

In experiment [2] the target is backbone-cyclized YibK from Pseudomonas aeruginosa with a nine-residue linker (sortase A ligation of PaYibK_lo) (Pseudomonas aeruginosa). Kind of experiment: SEC-SAXS; native conditions: buffer A (50 mM Tris-HCl pH 7.4, 0.5 mM EDTA, 5 mM DTT) without urea, 2% glycerol; protein at 10 mg/ml; online size-exclusion column (Bio SEC-3).
The target in experiment [3] is linear form of YibK from Pseudomonas aeruginosa with the identical sequence as PaYibK_lo / cYibK (Pseudomonas aeruginosa). The experiment is described as above.
Experiment [4] deals with wild-type YibK from Pseudomonas aeruginosa in its linear form (Pseudomonas aeruginosa). Kind of experiment: crystal structure; PaYibK: 0.15 M ammonium sulfate, 0.9 M lithium sulfate, 0.1 M sodium citrate pH 5.6, 2.0 Å; cYibK: 0.3 M ammonium sulfate, 0.1 M MES pH 6.0, 25% PEG MME 5,000, 2.2 Å.

`Nc1ncnc2c1ncn2[C@@H]1O[C@H](CSCC[C@H](N)C(=O)O)[C@@H](O)[C@H]1O` [S-adenosyl-L-homocysteine]: the Kd (in general, the concentration at which binding is half-saturated) was 8.8 ± 0.01 µM on lYibK (linear PaYibK_lo) and 8.93 ± 0.03 µM in experiment [1]. As for “backbone-cyclized YibK from Pseudomonas aeruginosa with a nine-residue linker (sortase A ligation of PaYibK_lo) (enzyme)”, the stoichiometry N – broadly, a count of units in the complex or per binding partner – in experiment [2] turned out to be 2. “linear form of YibK from Pseudomonas aeruginosa with the identical sequence as PaYibK_lo / cYibK (enzyme)” registered a stoichiometry N in experiment [3] of 2. The molecule “wild-type YibK from Pseudomonas aeruginosa in its linear form (enzyme)” registered a stoichiometry N in experiment [4] of 2.
